The text below walks through data of patent US12258605B2, “Alkane oxidation by modified hydroxylases” (The California Institute of Technology, priority 2005, dated 2025).

Usually kcat stands for the maximal rate divided by the concentration of active sites. For orientation: Km means the concentration of substrate that gives half-maximal velocity.

Residue numbers refer to the chain shown, from its start. In names and notes the source's numbering stands. Like-named read-outs stand apart in the source and are kept apart here.

What all share (assay type): biochemical
Data set [1] in a line: Kinetic constants for n-alkanes: heptane. The settings on record: N.m = not measurable. The protocol:
Rate measurements. Initial rates of product formation were determined at 25° C. in 100 mM KPi pH 8.0 buffer using purified protein (100 nM) and a substrate concentration of 1.6 mM. In a 5 mL-vial, 20 μL of alkane solution (in ethanol) were dissolved in 400 μL KPi buffer, to which 500 μL enzyme solution at 100-200 nM was added. Reaction was initiated by adding 100 μL of 5 mM NADPH solution, followed by stirring at 300 rpm for 1 minute, and quenched by adding 200 μL chloroform and stirring at 800 rpm for 10 sec. Solutions were transferred to an Eppendorf tube, to which internal standard (10 μL 25 mM 1-bromohexane in ethanol) was added. Tubes were vortexed for 10 sec and centrifuged for 30 sec at 10,000 g. Organic phase was removed and analyzed by GC. For propane, reactions were carried out in a 5 mL-scale using 100-400 nM purified enzyme, propane-saturated buffer (propane concentration≈1.6 mM) and a final NADPH concentration of 500 μM. Reactions were stopped by addition of 200 μL H2SO4 conc. and analyzed by derivatization to alkyl nitrites followed by GC-ECD analysis as described below.
(§1) Products from alkane reactions were identified and quantified by gas chromatography using authentic standards and calibration curves with internal standards. For the reactions with alkanes from pentane to decane, GC analyses were carried out using a Shimadzu GC-17A gas chromatograph, Agilent HP5 column (30 m×0.32 mm×0.1 μm film), 1 μL injection, FID detector, and the following separation program: 250° C. inlet, 250° C. detector, 50° C. oven for 3 min, 5° C./min gradient to 100° C., 25° C./min gradient to 230° C., and 230° C. for 3 min. For butane and propane (TTN) reactions, GC analyses were carried out using a Hewlett-Packard 5890 Series II Plus gas chromatograph, Supelco SPB-1 column (60 m×0.52 mm×0.5 μm film), 0.5 μL injection, FID detector, and the following separation program: 250° C. inlet, 275° C. detector, 80° C. oven for 2 min, 10° C./min gradient to 110° C., 25° C./min gradient to 275° C., and 275° C. for 2.5 min. For ethane and propane (rate) reactions, analysis of reaction mixtures was carried out by derivatization to alkyl nitrites followed by GC-ECD analysis. For laurate, reaction product analysis was carried out by derivatization with N-methyl-N-trimethylsilylheptafluorobutyramide followed by extraction with hexane. Organic solutions were analyzed by FID-GC.
To further investigate the evolution of substrate specificity, kinetic constants for the C5 to C8 alkanes were determined from Michaelis-Menten plots (Table 19). The preference of 35E11 and its evolutionary predecessors for medium-chain alkanes is indicated by their high C8/C5 specificities ((kcat/Km)8/(kcat/Km)5˜100), where Km appears to be the major contributing factor. C8/C5 specificity decreases to ˜5 in the immediate precursors of P450PMO and then switches altogether to the smaller alkane, becoming 0.4 in P450PMO. In P450PMO, catalytic efficiency is highest on propane and decreases along the alkane series, driven by decreasing kcat.

Data set [2] can be described thus: Reactions on alkanes, total turnovers (Table 18): butane. The settings on record: for TTN / % rel. act.: butane (4 C atoms); for TTN: total turnovers, standardized reaction conditions; for % rel. act.: TTN normalized to the highest value of the variant's series. The protocol:
(§2) Reactions on alkanes. Reactions with alkanes from pentane to decane were carried out at 3 mL-scale using 100 mM KPi pH 8.0 buffer containing 2% ethanol (to allow alkane solubilization) and purified protein. 2.5 mL KPi buffer were added with 60 μL of 90 mM alkane solution in ethanol (final conc.=1.8 mM), 150 μL enzyme solution at 1 μM (final conc.=50 nM), and 300 μL NADPH regeneration solution (100 units/mL isocitrate dehydrogenase, 70 mg/mL isocitrate, 1.5 mg/ml NADP^+). Vials were sealed and stirred for 24 hours at 4° C. 1 mL-aliquot of the reaction was removed, added with 10 μl internal standard (25 mM 1-bromohexane in ethanol), and extracted with 200 μl chloroform (30 sec vortexing, 1 min centrifugation at 10000 g). The organic phase was removed and analyzed by gas chromatography. Reactions with ethane, propane, and butane were carried out as described for longer alkanes with the only difference that alkane-saturated KPi buffer was used. Propane reactions with variants from HL5 and L9 libraries were performed on 1 mL-scale reaction using 20 nM enzyme to reduce oxygen limitation. Propane and butane reactions were analyzed by direct injection of reaction solution on the GC using 1-pentanol as internal standard. Ethane reaction products were functionalized (see below) and analyzed by GC using 1-butanol as internal standard. All measurements were performed in triplicate.
as §1
(§3) TTNs for each variant-substrate pair were determined using standardized reaction conditions (identical enzyme and substrate concentration, incubation time, cofactor regeneration system) (Table 18). TTN values were used to assess performance because TTN is a cumulative measure of both catalytic and coupling efficiency and because mutants were selected based on improvement in this property. To facilitate comparison among the variants, TTNs were normalized to the highest value in the series (MTN=Maximal Turnover Number) and plotted for the increasing-sized substrates (FIG. 38). A gradual shift of the enzyme's substrate preference during laboratory evolution is evident from these profiles. The marginal activity of wild-type BM3 on these substrates (MTN=150) is restricted to the long-chain alkanes, where it is a promiscuous function of BM3's high C12-C20 fatty acid hydroxylase activity. In the first evolutionary intermediates, substrate preference centers on medium-chain alkanes […], reflecting their selection for activity on octane. In 35E11, selected for activity on propane, preference still centers on C6-C8 alkanes but now extends towards the shorter ones, including propane. Propane activity becomes prevalent with the transition from variant ETS8 to 19A12. […]

The nature of data set [3]: Reactions on alkanes, total turnovers (Table 18): heptane. The settings on record: heptane (7 C atoms); for % rel. act.: TTN normalized to the highest value of the variant's series; for TTN: total turnovers, standardized reaction conditions. The protocol:
as §2, §1, §3

B1: 35-E11: P450 BM-3 variant, SEQ ID NO:7: 53-5H substitutions plus E464G and I710T (protein)
chain: TIKEMPQPKTFGELKNLPLLNTDKPVQALMKIADELGEIFKFEAPGCVTRYLSSQRLIKEACDESRFDKNLSQALKFFRDFSGDGLFTSWTHEINWKKAHNILLPSFSQQAMKGYHAMMVDIAVQLVQKWERLNADEHIEVSEDMTRLTLDTIGLCGFNYRFNSFYRDQPHPFIISMVRALDEVMNKLQRANPDDPAYDENKRQCQEDIKVMNDLVDKIIADRKARGEQSDDLLTQMLNGKDPETGEPLDDGNISYQIITFLIAGHETTSGLLSFALYFLVKNPHVLQKVVEEAARVLVDPVPSYKQVKQLKYVGMVLNEALRLWPTFPAFSLYAKEDTVLGGEYPLEKGDEVMVLIPQLHRDKTIWGDDVEEFRPERFENPSAIPQHAFKPFGNGQRACIGQQFALHEATLVLGMMLKHFDFEDHTNYELDIKETLTLKPEGFVVKAKSKKIPLGGIPSPSTGQSAKKVRKKAENAHNTPLLVLYGSNMGTAEGTARDLADIAMSKGFAPQVATLDSHAGNLPREGAVLIVTASYNGHPPDNAKQFVDWLDQASADEVKGVRYSVFGCGDKNWATTYQKVPAFIDETLAAKGAENIADRGEADASDDFEGTYEEWREHMWSDVAAYFNLDIENSEDNKSTLSLQFVDSAADMPLAKMHGAFSTNVVASKELQQPGSARSTRHLEIELPKEASYQEGDHLGVIPRNYEGTVNRVTARFGLDASQQIRLEAEEEKLAHLPLAKTVSVEELLQYVELQDPVTRTQLRAMAAKTVCPPHKVELEALLEKQAYKEQVLAKRLTMLELLEKYPACEMKFSEFIALLPSIRPRYYSISSSPRVDEKQASITVSVVSGEAWSGYGEYKGIASNYLAELQEGDTITCFISTPQSEFTLPKDPETPLIMVGPGTGVAPFRGFVQARKQLKEQGQSLGEAHLYFGCRSPHEDYLYQEELENAQSEGIITLHTAFSRMPNQPKTYVQHVMEQDGKKLIELLDQGAHFYICGDGSQMAPAVEATLMKSYADVHQVSEADARLWLQQLEEKGRYAKDVWAG
modifications: mutant P450 35-E11 protein sequence
With B1, the kcat in data set [1] is 10.6 ± 1.38 s⁻¹. Further, in data set [1] (read-out: Km), the Km was found to be 200 ± 46 µM. This molecule also registered a TTN in data set [2] of 5150 ± 104. Moreover, in data set [3], the “% rel. act.” value was 81.4% and the TTN is reported as 5170 ± 148.

B2: P450PMO: P450 BM-3 variant, SEQ ID NO:125; 7-7 plus G443A and D698G; propane monooxygenase (protein)
chain: B1 chain with L52I, A74E, S82G, L188P, I366V, G443A, D698G
modifications: Mutant P450PMO protein sequence
notes: 7-7 plus G443A and D698G; propane monooxygenase
Turning to B2, the kcat in data set [1] was determined as 0.533 ± 0.083 s⁻¹. In data set [1] (read-out: Km), the Km came out at 190 ± 40 µM. Also, in data set [2], the “% rel. act.” value is recorded as 30.2% and the TTN turned out to be 6200 ± 400. The “drop in activity when a single methylene unit is added to the substrate” value in data set [2] (relative to propane) is 90%. Further, in data set [3], the “% rel. act.” value is listed as 14.6% and the TTN amounted to 2990 ± 165.

B3: Wild-type BM-3: wild-type cytochrome P450 BM-3 from Bacillus megaterium, SEQ ID NO:1 (protein, listed as Bacillus megaterium)
chain: TIKEMPQPKTFGELKNLPLLNTDKPVQALMKIADELGEIFKFEAPGRVTRYLSSQRLIKEACDESRFDKNLSQALKFVRDFAGDGLFTSWTHEKNWKKAHNILLPSFSQQAMKGYHAMMVDIAVQLVQKWERLNADEHIEVPEDMTRLTLDTIGLCGFNYRFNSFYRDQPHPFITSMVRALDEAMNKLQRANPDDPAYDENKRQFQEDIKVMNDLVDKIIADRKASGEQSDDLLTHMLNGKDPETGEPLDDENIRYQIITFLIAGHETTSGLLSFALYFLVKNPHVLQKAAEEAARVLVDPVPSYKQVKQLKYVGMVLNEALRLWPTAPAFSLYAKEDTVLGGEYPLEKGDELMVLIPQLHRDKTIWGDDVEEFRPERFENPSAIPQHAFKPFGNGQRACIGQQFALHEATLVLGMMLKHFDFEDHTNYELDIKETLTLKPEGFVVKAKSKKIPLGGIPSPSTEQSAKKVRKKAENAHNTPLLVLYGSNMGTAEGTARDLADIAMSKGFAPQVATLDSHAGNLPREGAVLIVTASYNGHPPDNAKQFVDWLDQASADEVKGVRYSVFGCGDKNWATTYQKVPAFIDETLAAKGAENIADRGEADASDDFEGTYEEWREHMWSDVAAYFNLDIENSEDNKSTLSLQFVDSAADMPLAKMHGAFSTNVVASKELQQPGSARSTRHLEIELPKEASYQEGDHLGVIPRNYEGIVNRVTARFGLDASQQIRLEAEEEKLAHLPLAKTVSVEELLQYVELQDPVTRTQLRAMAAKTVCPPHKVELEALLEKQAYKEQVLAKRLTMLELLEKYPACEMKFSEFIALLPSIRPRYYSISSSPRVDEKQASITVSVVSGEAWSGYGEYKGIASNYLAELQEGDTITCFISTPQSEFTLPKDPETPLIMVGPGTGVAPFRGFVQARKQLKEQGQSLGEAHLYFGCRSPHEDYLYQEELENAQSEGIITLHTAFSRMPNQPKTYVQHVMEQDGKKLIELLDQGAHFYICGDGSQMAPAVEATLMKSYADVHQVSEADARLWLQQLEEKGRYAKDVWAG
In the case of B3, in data set [1], the Km result is listed as “n.m” and the kcat entry is “n.m”. In data set [2], the “% rel. act.” value was determined as 0.0% and the TTN is 0. In addition, in data set [3], the “% rel. act.” value was 12.5% and the TTN is on record as 20 ± 5.
